Experiments:
[1] = biological target: T1, Native porcine OXM, P01274
T1 chain: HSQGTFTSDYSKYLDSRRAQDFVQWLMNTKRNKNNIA

OXM2 = biological target: T2, OXM2 (not fully specified)
T2 chain: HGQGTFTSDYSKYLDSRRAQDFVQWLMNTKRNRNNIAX

B1: recombinant soluble human DP-IV (protein)
chain: SRKTYTLTDYLKNTYRLKLYSLRWISDHEYLYKQENNILVFNAEYGNSSVFLENSTFDEFGHSINDYSISPDGQFILLEYNYVKQWRHSYTASYDIYDLNKRQLITEERIPNNTQWVTWSPVGHKLAYVWNNDIYVKIEPNLPSYRITWTGKEDIIYNGITDWVYEEEVFSAYSALWWSPNGTFLAYAQFNDTEVPLIEYSFYSDESLQYPKTVRVPYPKAGAVNPTVKFFVVNTDSLSSVTNATSIQITAPASMLIGDHYLCDVTWATQERISLQWLRRIQNYSVMDICDYDESSGRWNCLVARQHIEMSTTGWVGRFRPSEPHFTLDGNSFYKIISNEEGYRHICYFQIDKKDCTFITKGTWEVIGIEALTSDYLYYISNEYKGMPGGRNLYKIQLSDYTKVTCLSCELNPERCQYYSVSFSKEAKYYQLRCSGPGLPLYTLHSSVNDKGLRVLEDNSALDKMLQNVQMPSKKLDFIILNETKFWYQMILPPHFDKSKKYPLLLDVYAGPCSQKADTVFRLNWATYLASTENIIVASFDGRGSGYQGDKIMHAINRRLGTFEVEDQIEAARQFSKMGFVDNKRIAIWGWSYGGYVTSMVLGSGSGVFKCGIAVAPVSRWEYYDSVYTERYMGLPTPEDNLDHYRNSTVMSRAENFKQVEYLLIHGTADDNVHFQQSAQISKALVDVGVDFQAMWYTDEDHGIASSTAHQHIYTHMSHFIKQCFSLP
[1]
  loss of potency at hGLP-1R (cAMP HTRF) after preincubation with DP-IV: loss of potency due to preincubation of the peptides with DP-IV
OXM2
  loss of potency at hGLP-1R (cAMP HTRF) after preincubation with DP-IV: loss of potency due to preincubation of the peptides with DP-IV
